Consider 14 molecules from patent US20240027467A1 (VIB VZW, published 2024).

Test [1] addresses T1, recombinant human coagulation factor IXa (human, UniProt P00740 134-191; P00740 227-461).
T1 construct: range 134-191;range 227-461; Fluorescently labelled with Dylight-647 for the NANEX runs; also called FIXa
In words: BLI.

For test [2], the target named is T1, recombinant human coagulation factor IXa. The test is described as follows: tandem NANEX: displacement of factor IXa from immobilised CA10502 by 1 mL of 2.5 mg/mL (24 µM) MegaBody CA14208; A280/A650 and SDS-PAGE.
For test [3], the target named is T2, GST (Glutathione S-transferase) (Schistosoma japonicum (Blood fluke), UniProt P08515 1-218 = GST). The test is described as follows: BLI. For orientation: Biolayer interferometry detects binding as a change in optical thickness at a sensor tip.
Description: (§1) Streptavidin-coated Octet® biosensors were used to capture biotinylated Nanobodies (1 μg/mL). […] All assays were performed in Hepes 25 mM pH7.5, NaCl 150 mM supplemented with BSA 0.1% and Tween²⁰ 0.005% at room temperature.
Test [4] concerns the target T2, GST (Glutathione S-transferase). The test is described as follows: BLI (OctetRed), biotinylated Nb on streptavidin sensor, GST 63-1667 nM.
Description: as §1
Test [5] deals with T3, GFP protein (Aequorea victoria (Water jellyfish) …, UniProt P42212 1-238 = GFP).
T3 construct: Purified GFP used as BLI analyte, in crystals and in NANEX; also called Green fluorescent protein
The test is described as follows: BLI.
Description: (§2) Streptavidin-coated Octet® biosensors were used to capture biotinylated Nanobodies (1 μg/mL). Binding and dissociation isotherms at several GFP concentrations (1 nM to 5 μM range) were analyzed on an OctetRed (molecular devices). All assays were performed in Hepes 25 mM pH7.5, NaCl 150 mM supplemented with BSA 0.1% and Tween²⁰ 0.005% at room temperature.

Test [6] deals with T3, GFP protein. The test is described as follows: comparison of affinities told with the NANEX result.
Test [7] concerns the target T3, GFP protein. The test is described as follows: BLI (OctetRed), biotinylated Nb on streptavidin sensor, GFP as analyte.
Description: as §2
Test [8] deals with T3, GFP protein. The test is described as follows: BLI. This is another data set of the same source.
Description: (§3) Streptavidin-coated Octet® biosensors were used to capture biotinylated Nanobodies (1 μg/mL). Binding and dissociation isotherms at several GFP concentrations (8 nM to 500 nM range) were analyzed on an OctetRed (molecular devices). All assays were performed in Hepes 25 mM pH7.5, NaCl 150 mM supplemented with BSA 0.1% and Tween²⁰ 0.005% at room temperature.
The target in test [9] is T3, GFP protein. In words: BLI (OctetRed), biotinylated Nb on streptavidin sensor, GFP 8-500 nM.
Description: as §3
The target in test [10] is T4, SMT3 (YDR510W), ubiquitin-like protein SMT3 (yeast).
T4 construct: also called yeast SUMO protein
T4 chain: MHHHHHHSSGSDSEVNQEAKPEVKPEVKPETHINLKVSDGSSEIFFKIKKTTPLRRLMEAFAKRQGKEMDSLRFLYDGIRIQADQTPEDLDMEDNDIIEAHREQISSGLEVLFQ
The test is described as follows: BLI.
Description: (§4) Streptavidin-coated Octet® biosensors were used to capture biotinylated Nanobodies (1 μg/mL). Binding and dissociation isotherms at several SMT3 concentrations (10 nM to 500 nM range) were analyzed on an OctetRed (molecular devices). All assays were performed in Hepes 25 mM pH7.5, NaCl 150 mM supplemented with BSA 0.1% and Tween²⁰ 0.005% at room temperature.

Test [11] addresses T4, SMT3 (YDR510W), ubiquitin-like protein …. In words: BLI (OctetRed), biotinylated Nb on streptavidin sensor, SMT3 10-500 nM.
Description: as §4
Test [12] concerns the target mCherry. The test is described as follows: BLI.
Description: as §1
In test [13] the target is mCherry. The test is described as follows: BLI (OctetRed), biotinylated Nb on streptavidin sensor, mCherry 8.23-222 nM.
Description: as §1
For test [14], the target named is T5, FmIH_lectin_mCherry_his (CA17337).
T5 construct: also called mCherry-fusion protein
The test is described as follows: NANEX column: lysate with FmlH_lectin_mCherry_his on immobilised CA16964; A280 and SDS-PAGE [D00043 FIG. 39B].

T1 sequence (P00740 134-191 limits assumed, form in doubt, chain 1 of 2): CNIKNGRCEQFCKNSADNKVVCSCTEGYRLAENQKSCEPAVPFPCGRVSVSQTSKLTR
T1 sequence (P00740 227-461 limits assumed, form in doubt, chain 2 of 2): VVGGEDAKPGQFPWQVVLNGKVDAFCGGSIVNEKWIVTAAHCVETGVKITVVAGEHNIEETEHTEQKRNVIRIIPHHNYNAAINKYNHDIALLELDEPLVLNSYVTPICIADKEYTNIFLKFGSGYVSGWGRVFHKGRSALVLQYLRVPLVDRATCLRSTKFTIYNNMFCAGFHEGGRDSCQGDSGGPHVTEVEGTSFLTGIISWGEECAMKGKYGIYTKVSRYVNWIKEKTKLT

B1: CA10309 FIXa-specific Nb (Stripper2; C-term. 6xHis+EPEA) (VHH)
VHH: QVQLVESGGGLVQAGGSLRLSCATSGIGFSIYSMGWYRQAPGKERELVASIAGNEDKDYVESVKGRFTISRDYAKNTLYLEMSGLKFEDTAMYYCAAGLRRGVSLTPYYWGQGTQVTVSS
In general, Kd refers to the concentration at which binding is half-saturated. For orientation: koff means the rate constant with which the complex falls apart. As usually defined, the kon is the second-order rate constant of association. Turning to B1, in test [1], the Kd was 21 nM, the off-rate constant (koff) is 0.00073 s⁻¹ and the on-rate (kon) was 62000 M⁻¹ s⁻¹.

B2: CA14208 FIXa-specific MegaBody (Stripper2; C-term. 6xHis+EPEA) (other)
chain: QVQLVESGGGLVYKEETQSGLNNYARVVEKGQYDSLEIPAQVAASWESGRDDAAVFGFIDKEQLDKYVANGGKRSDWTVKFAENRSQDGTLLGYSLLQESVDQASYMYSDNHYLAEMATILGKPEEAKRYRQLAQQLADYINTCMFDPTTQFYYDVRIEDKPLANGCAGKPIVERGKGPEGWSPLFNGAATQANADAVVKVMLDPKEFNTFVPLGTAALTNPAFGADIYWRGRVWVDQFWFGLKGMERYGYRDDALKLADTFFRHAKGLTADGPIQENYNPLTGAQQGAPNFSWSAAHLYMLYNDFFRKQASGGGSGGGGSGGGGSGNADNYKNVINRTGAPQYMKDYDYDDHQRFNPFFDLGAWHGHLLPDGPNTMGGFPGVALLTEEYINFMASNFDRLTVWQDGKKVDFTLEAYSIPGALVQKLTAKDVQVEMTLRFATPRTSLLETKITSNKPLDLVWDGELLEKLEAKEGKPLSDKTIAGEYPDYQRKISATRDGLKVTFGKVRATWDLLTSGESEYQVHKSLPVQTEINGNRFTSKAHINGSTTLYTTYSHLLTAQEVSKEQMQIRDILARPAFYLTASQQRWEEYLKKGLTNPDATPEQTRVAVKAIETLNGNWRSPGGAVKFNTVTPSVTGRWFSGNQTWPWDTWKQAFAMAHFNPDIAKENIRAVFSWQIQPGDSVRPQDVGFVPDLIAWNLSPERGGDGGNWNERNTKPSLAAWSVMEVYNVTQDKTWVAEMYPKLVAYHDWWLRNRDHNGNGVPEYGATRDKAHNTESGEMLFTVKKDSLRLSCATSGIGFSIYSMGWYRQAPGKERELVASIAGNEDKDYVESVKGRFTISRDYAKNTLYLEMSGLKFEDTAMYYCAAGLRRGVSLTPYYWGQGTQVTVSSHHHHHHEPEA
notes: Functionalized Nanobody derived from CA10309; also called MegaBody MbCA10309^YgjK; MbNbFIXa^cHopQ
As to B2, the binding result in [2] is recorded as “binds”.

B3: CA16239 GST Nanobody stripper (including C-terminal 6xHis+EPEA tag) (VHH)
VHH: QVQLVESGGGLVQAGGSLRLSCAASERTFSTYNMAWFRQAPGKEREFVAVISWNGGTTNSADSVKGRFTISRDNAKNTVYLQMNSLKPEDTAVYYCAARRVPYLSGTRYYTGEVDYDTWGQGTQVTVSS
modifications: biotinylated for BLI
B3: in [3], the “Half time ratio (relative to wt)” value worked out at 1 fold and the “KD ratio (relative to wt)” value turned out to be 1 fold. In test [4], this molecule gave a Kd of 4.86 nM, a koff of 0.00309 s⁻¹ and a kon of 720000 M⁻¹ s⁻¹.

B4: CA16240 GST Nanobody trapper (Y109A) (including C-terminal 6xHis+EPEA tag) (VHH)
VHH: QVQLVESGGGLVQAGGSLRLSCAASERTFSTYNMAWFRQAPGKEREFVAVISWNGGTTNSADSVKGRFTISRDNAKNTVYLQMNSLKPEDTAVYYCAARRVPYLSGTRAYTGEVDYDTWGQGTQVTVSS
modifications: biotinylated for BLI
notes: Y109A mutant of CA16239
With B4, in [3], the “Half time ratio (relative to wt CA16239)” value worked out at 84 fold and the “KD ratio (relative to wt CA16239)” value was 136 fold. In test [4], this molecule returned a Kd of 659 nM, a koff of 0.251 s⁻¹ and a kon of 512000 M⁻¹ s⁻¹.

B5: CA15818 GFP-NbF103A (C-term. 6xHis + EPEA) (VHH)
VHH: QVQLVESGGGLVQAGGSLRLSCAASGRTFSTAAMGWFRQAPGKERDFVAGIYWTVGSTYYADSAKGRFTISRDNAKNTVYLQMDSLKPEDTAVYYCAARRRGATLAPTRANEYDYWGQGTQVTVSS
modifications: biotinylated for BLI
notes: F103A mutant of CA12760; also called Nb CA15818
Turning to B5, in test [5], the “Half-time ratio (relative to the wt Nb CA12760)” value came to 9 fold and the “KD ratio (relative to the wt Nb CA12760)” value came out at 30 fold. Also, in test [6], the “affinity, fold higher than the trapper CA15816” value was 2 fold. In test [7], this molecule gave a dissociation constant (Kd) of 1.5 nM and an off-rate constant (koff) of 0.00029 s⁻¹.

B6: CA15861 GFP-NbT54A/V55A/F103A (C-term. 6xHis + EPEA) (VHH)
VHH: QVQLVESGGGLVQAGGSLRLSCAASGRTFSTAAMGWFRQAPGKERDFVAGIYWAAGSTYYADSAKGRFTISRDNAKNTVYLQMDSLKPEDTAVYYCAARRRGATLAPTRANEYDYWGQGTQVTVSS
modifications: biotinylated for BLI
notes: T54A/V55A/F103A mutant of CA12760; also called Nb CA15861
B6: in [5], the “Half-time ratio (relative to the wt Nb CA12760)” value amounted to 1400 fold and the “KD ratio (relative to the wt Nb CA12760)” value worked out at 2000 fold. The “affinity, fold lower than the trapper CA15816” value in test [6] is about 100 fold. Besides, in test [7], binding was characterised by a dissociation constant (Kd) of 111 nM and the koff is 0.0458 s⁻¹.

B7: CA16047 second GFP Nanobody stripper (including C-terminal 6xHis+EPEA tag) (VHH)
VHH: QVQLQESGGGLVQAGGSLRLSCAASGFTFDGYAIGWFRQAPGKEREGVSCISSSDGSTYYADSVKGRFTISSDNAKNTVYLQMNSLKPEDTAVYYCVAAWSPSTGCGSYYVQRPPGYDYWGQGTQVTVSS
modifications: biotinylated for BLI
notes: also called Nb CA16047
As for B7, in test [8], the “Half time ratio (relative to wt)” value turned out to be 1 fold and the “KD ratio (relative to wt)” value worked out at 1 fold. Besides, in test [9], binding was put at a Kd of 6.15 nM, the koff worked out at 0.00098 s⁻¹ and the kon came out at 234000 M⁻¹ s⁻¹.

B8: CA16695 second GFP Nanobody trapper (Y119F) (including C-terminal 6xHis+EPEA tag) (VHH)
VHH: QVQLQESGGGLVQAGGSLRLSCAASGFTFDGYAIGWFRQAPGKEREGVSCISSSDGSTYYADSVKGRFTISSDNAKNTVYLQMNSLKPEDTAVYYCVAAWSPSTGCGSYYVQRPPGYDFWGQGTQVTVSS
modifications: biotinylated for BLI
notes: Y119F mutant of CA16047; also called Nb CA16695
In the case of B8, in test [8], the “Half time ratio (relative to wt CA16047)” value is 1.78 fold and the “KD ratio (relative to wt CA16047)” value turned out to be 1.37 fold. In test [9], this molecule gave a Kd of 8.53 nM, a koff of 0.00167 s⁻¹ and a kon of 200000 M⁻¹ s⁻¹.

B9: CA10502 FIXa-specific Nb (Trapper2; C-term. 6xHis+EPEA) (VHH)
VHH: QVQLQESGGGLVQAGGSLRLSCAASGRTSRVYGVGWFRQAPGKERELVASISTSGSVTNVADSVKGRFTISRDNAKTTVYLQMNSLKPEDTALYYCAADPHGRPYGWGQGTQVTVSS
For B9, in test [1], the Kd worked out at 74 nM, the off-rate (koff) worked out at 0.004 s⁻¹ and the kon amounted to 70000 M⁻¹ s⁻¹.

B10: CA10304 FIXa-specific Nb (C-term. 6xHis+EPEA) (VHH)
VHH: QVQLVESGGGLVQAGGSLKLSCAASERTFSGTVMGWFRQPPGKEREFVGDISWSGSITDYADSVKGRFTISRDNAKNTMYLQMDSLKPEDTAVYYCAARVGGYSYIMSRSPADFGSWGQGTQVTVSS
notes: also called stripper1
With B10, in test [1], the Kd is 46 nM, the koff was found to be 0.0035 s⁻¹ and the kon was determined as 88000 M⁻¹ s⁻¹.

B11: CA15839 SMT3 Nanobody stripper (including C-terminal 6xHis+EPEA tag) (VHH)
VHH: QVQLVESGGGSAQTGGSLTLSCTASGSIVSMNSMGWFRRAPWKGREWLGDIGRDGRTSYASSVVGRFHISRDEAKNTVYLQMTRLKPEDAAMYYCAAVPFGDDDVGEWEYWGQGTQVTVSS
modifications: biotinylated for BLI
Take B11: in test [10], the “Half time ratio (relative to wt)” value was found to be 1 fold and the “KD ratio (relative to wt)” value amounted to 1 fold. Further, in [11], the affinity, expressed as Kd, was 6.67 nM; the koff stood at 0.00212 s⁻¹; the kon was determined as 318000 M⁻¹ s⁻¹.

B12: CA16687 SMT3 Nanobody trapper (D50A) (including C-terminal 6xHis+EPEA tag) (VHH)
VHH: QVQLVESGGGSAQTGGSLTLSCTASGSIVSMNSMGWFRRAPWKGREWLGAIGRDGRTSYASSVVGRFHISRDEAKNTVYLQMTRLKPEDAAMYYCAAVPFGDDDVGEWEYWGQGTQVTVSS
modifications: biotinylated for BLI
Take B12: in test [10], the “Half time ratio (relative to wt CA15839)” value stood at 3.75 fold and the “KD ratio (relative to wt CA15839)” value was 4.34 fold. In test [11], this molecule gave a Kd of 29 nM, a koff of 0.00797 s⁻¹ and a kon of 387000 M⁻¹ s⁻¹.

B13: CA16964 mCherry Nanobody trapper (including C-terminal 6xHis+EPEA tag) (VHH)
VHH: QVQLVESGGGLVQAGGSLRLSCAASGRDFSFDGMGWFRQAPGKEREFVAAISWSGLRIGYSDSVKGRFTISRDNAETTVHLQMNSLKPEDTAVYYCATGSHATTKAQLYDYEYWGQGTQVTVSS
modifications: biotinylated for BLI
notes: also called Nb CA16964
As to B13, in test [12], the “Half time ratio (relative to CA17302)” value was found to be 4.27 fold and the “KD ratio (relative to CA17302)” value worked out at 3.86 fold. In addition, in [13], the equilibrium dissociation constant (Kd) came to 6.53 nM, the koff is 0.00436 s⁻¹ and the kon was found to be 694000 M⁻¹ s⁻¹. In test [14], the binding result is recorded as “binds”.

B14: CA11138 FIXa-specific Nb (C-term. 6xHis+EPEA) (VHH)
VHH: QVQLVESGGGLVQAGGSLRLSCAASERTASNYVMGWFRQAPGKEREFVAFISRTGGSTYYADSVKGRFTVSRDGAKNTVYLQMNTMKPEDTAVYYCAASLYIRNYYEGTNYAYWGQGTQVTVSS
notes: also called trapper1
B14: in test [1], the Kd was found to be 141 nM, the dissociation rate constant (koff) was found to be 0.0042 s⁻¹ and the kon turned out to be 34000 M⁻¹ s⁻¹.
